Experiment [1] concerns the target IL-5R α-chain co-expressed with Y421A βc on COS cells (human) (UniProt Q01344). Kind of experiment: Scatchard (LIGAND) of radio-iodinated IL-5 on COS cells with IL-5R α-chain and Y421A βc; single receptor class.
Experiment [2] concerns the target IL-5R α-chain co-expressed with mutant ^418AAAYA^422 βc on COS cells (human) (UniProt Q01344). Kind of experiment: Scatchard (LIGAND) of radio-iodinated IL-5 on COS cells with IL-5R α-chain and ^418AAAYA^422 βc; single receptor class.
The target in experiment [3] is IL-3R α-chain co-expressed with Y421A βc on cells (human) (UniProt P26951). Kind of experiment: cell-based or functional assay.
Chain of IL-3R α-chain co-expressed with Y421A βc on cells (human) (P26951 19-378, chain 1 of 2): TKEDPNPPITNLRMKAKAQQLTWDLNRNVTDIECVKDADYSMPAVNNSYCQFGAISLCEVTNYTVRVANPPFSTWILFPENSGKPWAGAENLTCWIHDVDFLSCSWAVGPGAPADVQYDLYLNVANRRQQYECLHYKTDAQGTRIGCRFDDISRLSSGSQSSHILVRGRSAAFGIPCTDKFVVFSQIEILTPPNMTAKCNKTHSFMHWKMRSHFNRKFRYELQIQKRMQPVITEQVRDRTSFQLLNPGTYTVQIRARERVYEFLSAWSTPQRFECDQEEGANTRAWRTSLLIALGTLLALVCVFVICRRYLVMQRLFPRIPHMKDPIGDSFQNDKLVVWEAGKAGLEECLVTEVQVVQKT
Chain of IL-3R α-chain co-expressed with Y421A βc on cells (human) (P32927 17-897 Y421A, chain 2 of 2, further chain): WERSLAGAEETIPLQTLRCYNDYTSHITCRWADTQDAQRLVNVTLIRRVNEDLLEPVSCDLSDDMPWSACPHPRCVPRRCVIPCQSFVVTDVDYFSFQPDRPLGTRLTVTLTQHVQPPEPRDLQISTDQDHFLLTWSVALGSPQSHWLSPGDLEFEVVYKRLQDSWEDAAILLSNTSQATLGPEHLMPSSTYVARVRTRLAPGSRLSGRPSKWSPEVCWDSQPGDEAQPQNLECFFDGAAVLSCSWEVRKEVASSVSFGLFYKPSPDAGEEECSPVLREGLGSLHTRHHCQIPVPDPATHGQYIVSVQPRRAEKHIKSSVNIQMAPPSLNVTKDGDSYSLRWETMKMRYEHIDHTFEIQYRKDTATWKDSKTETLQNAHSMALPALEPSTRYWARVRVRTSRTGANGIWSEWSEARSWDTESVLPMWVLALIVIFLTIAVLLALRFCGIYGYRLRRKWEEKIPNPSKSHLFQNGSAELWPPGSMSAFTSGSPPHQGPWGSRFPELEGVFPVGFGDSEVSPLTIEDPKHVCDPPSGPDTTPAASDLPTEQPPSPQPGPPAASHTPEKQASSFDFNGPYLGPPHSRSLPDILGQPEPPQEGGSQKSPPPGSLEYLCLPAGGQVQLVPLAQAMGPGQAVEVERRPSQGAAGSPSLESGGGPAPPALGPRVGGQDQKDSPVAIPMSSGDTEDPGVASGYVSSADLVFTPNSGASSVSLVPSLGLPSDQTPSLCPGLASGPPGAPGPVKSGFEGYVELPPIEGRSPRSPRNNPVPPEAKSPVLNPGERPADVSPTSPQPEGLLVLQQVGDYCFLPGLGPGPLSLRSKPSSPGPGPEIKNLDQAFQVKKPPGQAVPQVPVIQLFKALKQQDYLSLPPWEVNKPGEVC
Experiment [4] deals with IL-3R α-chain co-expressed with R418A βc on COS cells (human) (UniProt P26951). Kind of experiment: radioligand saturation binding on transfected COS cells.
Chain of IL-3R α-chain co-expressed with R418A βc on COS cells (human) (P26951 19-378, chain 1 of 2): as the sequence (P26951 19-378, chain 1 of 2) above
Chain of IL-3R α-chain co-expressed with R418A βc on COS cells (human) (P32927 17-897 R418A, chain 2 of 2, further chain): as the sequence (P32927 17-897 Y421A, chain 2 of 2, further chain) above, with R402A, A405Y counted along it
In experiment [5] the target is IL-3R α-chain co-expressed with mutant ^418AAAYA^422 βc on COS cells (human) (UniProt P26951). Described as above.
Chain of IL-3R α-chain co-expressed with mutant ^418AAAYA^422 βc on COS cells (human) (P26951 19-378, stated change not applied, chain 1 of 2): as the sequence (P26951 19-378, chain 1 of 2) above
Chain of IL-3R α-chain co-expressed with mutant ^418AAAYA^422 βc on COS cells (human) (P32927 other isoform, or with tags, fused parts or gaps mutant, chain 2 of 2, further chain): as the sequence (P32927 17-897 Y421A, chain 2 of 2, further chain) above, with R402A, T403A, G404A, A405Y, N406A counted along it
Experiment [6] deals with IL-3R α-chain co-expressed with G420A βc on COS cells (human) (UniProt P26951). Kind of experiment: Scatchard (LIGAND) of 125I-IL-3 on COS cells with α-chains and G420A βc; high affinity site 1.
Chain of IL-3R α-chain co-expressed with G420A βc on COS cells (human) (P26951 19-378, chain 1 of 2): as the sequence (P26951 19-378, chain 1 of 2) above
Chain of IL-3R α-chain co-expressed with G420A βc on COS cells (human) (P32927 17-897 G420A, chain 2 of 2, further chain): as the sequence (P32927 17-897 Y421A, chain 2 of 2, further chain) above, with G404A, A405Y counted along it
In experiment [7] the target is IL-3R α-chain co-expressed with N422A βc on COS cells (human) (UniProt P26951). Kind of experiment: Scatchard (LIGAND) of 125I-IL-3 on COS cells with α-chains and N422A βc; high affinity site 1.
Chain of IL-3R α-chain co-expressed with N422A βc on COS cells (human) (P26951 19-378, chain 1 of 2): as the sequence (P26951 19-378, chain 1 of 2) above
Chain of IL-3R α-chain co-expressed with N422A βc on COS cells (human) (P32927 17-897 N422A, chain 2 of 2, further chain): as the sequence (P32927 17-897 Y421A, chain 2 of 2, further chain) above, with A405Y, N406A counted along it
For experiment [8], the target named is IL-3R α-chain co-expressed with R418A βc on COS cells (human) (UniProt P26951). Kind of experiment: Scatchard (LIGAND) of 125I-IL-3 on COS cells with α-chains and R418A βc; high affinity site 1.
Experiment [9] addresses IL-3R α-chain co-expressed with T419A βc on COS cells (human) (UniProt P26951). Kind of experiment: Scatchard (LIGAND) of 125I-IL-3 on COS cells with α-chains and T419A βc; high affinity site 1.
For experiment [10], the target named is IL-3R α-chain co-expressed with mutant ^418AAAYA^422 βc on COS cells (human) (UniProt P26951). Kind of experiment: Scatchard (LIGAND) of 125I-IL-3 on COS cells with α-chains and ^418AAAYA^422 βc; high affinity site 1.
Experiment [11] addresses T1, IL-3R α-chain expressed on cells without βc (UniProt P26951 19-378, limits assumed).
T1 construct: whole, on cells; also called α-chain only; hIL-3Rα
Kind of experiment: radioligand saturation binding, COS cells with α-chain only; range of affinities observed.

Experiment [12] concerns the target T2, IL-3R α-chain co-expressed with wild type βc on cells (human, UniProt P26951 19-378; P32927 17-897).
T2 construct: whole, on cells; The COS cells carried GM-CSFR and IL-3R α-chains together with βc; also called Wt βc
Kind of experiment: Scatchard (LIGAND) of 125I-IL-3 on COS cells with α-chains and wild type βc; high affinity site 1, low affinity site fixed at 50 nM.

This note sets out measurements from USRE39433 (MEDVET SCIENCE, dated 2006).

Chain of IL-5R α-chain co-expressed with mutant ^418AAAYA^422 βc on COS cells (human) (Q01344 21-420, stated change not applied, chain 1 of 2): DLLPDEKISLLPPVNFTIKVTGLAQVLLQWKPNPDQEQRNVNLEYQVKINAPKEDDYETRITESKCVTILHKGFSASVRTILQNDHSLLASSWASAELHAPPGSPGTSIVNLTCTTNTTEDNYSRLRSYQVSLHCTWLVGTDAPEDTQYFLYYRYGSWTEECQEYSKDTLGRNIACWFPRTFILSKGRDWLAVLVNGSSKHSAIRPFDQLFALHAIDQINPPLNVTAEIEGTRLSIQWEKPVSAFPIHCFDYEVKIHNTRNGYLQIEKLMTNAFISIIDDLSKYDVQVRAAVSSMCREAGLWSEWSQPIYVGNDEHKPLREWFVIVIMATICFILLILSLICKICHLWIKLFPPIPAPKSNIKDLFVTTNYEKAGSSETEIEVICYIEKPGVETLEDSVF
Chain of IL-5R α-chain co-expressed with mutant ^418AAAYA^422 βc on COS cells (human) (P32927 other isoform, or with tags, fused parts or gaps mutant, chain 2 of 2, further chain): as the sequence (P32927 17-897 Y421A, chain 2 of 2, further chain) above, with R402A, T403A, G404A, A405Y, N406A counted along it
Chain of IL-5R α-chain co-expressed with Y421A βc on COS cells (human) (Q01344 21-420, chain 1 of 2): as the sequence (Q01344 21-420, stated change not applied, chain 1 of 2) above
Chain of IL-5R α-chain co-expressed with Y421A βc on COS cells (human) (P32927 17-897 Y421A, chain 2 of 2, further chain): as the sequence (P32927 17-897 Y421A, chain 2 of 2, further chain) above
T2 sequence (P26951 19-378, chain 1 of 2): as the sequence (P26951 19-378, chain 1 of 2) above
T2 sequence (P32927 17-897, chain 2 of 2): as the sequence (P32927 17-897 Y421A, chain 2 of 2, further chain) above, with A405Y counted along it
T1 sequence (P26951 19-378 limits assumed): as the sequence (P26951 19-378, chain 1 of 2) above
Chain of IL-3R α-chain co-expressed with T419A βc on COS cells (human) (P26951 19-378, chain 1 of 2): as above
Chain of IL-3R α-chain co-expressed with T419A βc on COS cells (human) (P32927 17-897 T419A, chain 2 of 2, further chain): as the sequence (P32927 17-897 Y421A, chain 2 of 2, further chain) above, with T403A, A405Y counted along it

With “Human interleukin IL-5 (from UniProt P05113 20-134) (ligand)”, the Kd (usually the free concentration of one partner at which half of the binding sites on the other are occupied at equilibrium, for simple one-to-one binding) stood at 1.86 nM in experiment [1] and 0.71 nM in experiment [2].

The molecule “Human interleukin (IL)-3 (from UniProt P08700 20-152) (ligand)” gave an STAT5-L activation (EMSA with STAT5 probe, phosphorimager) in transfected Jurkat cells; concentration for half maximal activation in experiment [3] above 3 µM. In experiment [4], this molecule returned a fold reduction of high affinity binding against wild type βc of 2 to 3 fold. The fold reduction of affinity against wild type high affinity binding in experiment [5] amounted to 3 fold. For the same molecule, the Kd in experiment [6] was 0.196 nM; in experiment [7] it was 0.08 nM; in experiment [8] it was 0.511 nM; in experiment [9], 0.151 nM; in [10] it was 0.113 nM.

B1: Human interleukin (IL)-3 (ligand, UniProt P08700 20-152, looked up)
chain: APMTQTTPLKTSWVNCSNMIDEIITHLKQPPLPLLDFNNLNGEDQDILMENNLRRPNLEAFNRAVKSLQNASAIESILKNLLPCLPLATAAPTRHPIHIKDGDWNEFRRKLTFYLKTLENAQAQQTTLSLAIF
modifications: radio-iodinated (125I) in the saturation binding studies
notes: unlabelled in the STAT5-L assays on Jurkat cells; also called ^125I-IL-3
Consider B1, for which the Kd in experiment [11] was 20 to 100 nM; in [12], 0.141 nM.
